Results published in patent publication US12018068B2, “Anti-O1 antibodies and uses thereof” (priority 2016, dated 2024).
Changes are numbered by the printed parent chain.

B1: KPE33 H32+L2016(1EQ): further optimized variant of KPE33v2016, VH SEQ ID NO:61, VL SEQ ID NO:63 (antibody, V domains shown)
VH: QVQLVESGGGLVQPGRSLRLSCAASGFIFDDYAIHWVRQAPGKGLEWVSGIAYKSGATNYAESVKGRFTISRDQSKNSLYLQMNSLRAEDTALYYCTRRRASGDNTFYYFDYWGQGTLVTVSS
VL: QIVLTQSPATLSLSPGERATLSCRASQNVNTNLAWYQQKPGQAPRLLIYDASNRATGIPARFSGSGSGTDFTLTISSLEPEDFAVYYCQQTTNWRYTFGQGTKLEIK
B2: KPE33 H33+L2016(1EQ): further optimized variant of KPE33v2016, VH SEQ ID NO:62, VL SEQ ID NO:63 (antibody, V domains shown)
VH: B1 VH with N77K
VL: B1 VL
B3: KPE33V2016: sequence optimized KPE33, VH SEQ ID NO:12, VL SEQ ID NO:13 (antibody, V domains shown)
VH: EVQLVESGGGLVQPGRSLRLSCAASGFIFDDYAMHWVRQAPGKGLEWVSGIAWKSGATNYADSVKGRFAISRDNSKKSMYLQMNSLGTEDTALYYCTRRRASGDDTFYYFDYWGQGTLVTVSS
VL: B1 VL with Q1E
modifications: KPE33V2016 VH Amino Acid Sequence; KPE33V2016 VL Amino Acid Sequence

Tests used:
[1] = target: O1 LPS; assay: Octet binding affinity to O1 LPS; design: species or system Klebsiella pneumoniae; conditions: average, from on-rate and off-rate, read-out: affinity constant (KD) to O1 LPS
Text: In order to reduce potential sequence liabilities for antibody development including potential immunogenicity due to anti-drug antibodies, an unpaired Cysteine in the light chain CDR3 of KPE33 was exchanged with Threonine (T), and somatic mutations in the frameworks 1, 2, and 4 of KPE33 were replaced with germ line residues (as summarized in FIG. 5). CDRs were maintained as wildtype, except for the C107T substitution described above. The optimized KPE33 was named KPE33v2016. […] This platform provides a powerful tool to measure the rate of biomolecular complex formation and complex stability in a more biologically meaningful setting. Briefly, Protein A coated sensors were coated with 2 μg/mL O1 LPS for 10 minutes before being dipped into solution containing 0.2 μg/mL anti-O1 LPS mAbs in Kinetics buffer (ForteBio, dilute 10× to 1× with PBS). Changes in the number of molecules bound to the biosensor caused a shift in the interference pattern that was recorded in real time. […] The affinity constant (KD) of KPE33 and KPE33v2016 to O1 LPS was calculated based on the on-rate and off-rate from Octet sensorgram.
KPE33v2016 was further optimized, thereby creating two new variants—KPE33 H32+L2016(1EQ) and KPE33 H33+L2016(1EQ). Both of these variants contain a Methionine to Isoleucine mutation adjacent to CDRH1, a Tryptophan to Tyrosine mutation in CDRH2, an Aspartate to Glutamate mutation adjacent to CDRH2, Asparagine to Glutamine and Methionine to Leucine mutations in FRH3 and an Aspartate to Asparagine mutation in CDRH3. In addition, KPE33 H32+L2016(1EQ) had four FRH3 residues changed to the germ-line residues, whereas KPE33 H33+L2016(1EQ) only has three of the same FRH3 residues changed to the germ-line. Both of these variants contain the same light chain as KPE33v2016, but with a single Glutamate to Glutamine mutation in residue 1.

[2] = tested on: K. pneumoniae carbapenem-resistant (CRE) strain Kp1131115 (O1); assay: acute lethal pneumonia model, survival; assay type: in vivo, Klebsiella pneumoniae; conditions: C57BL/6 mice, antibody one hour post bacterial challenge, vs human IgG1 control (R347)
Procedure: (§1) In an acute pneumonia model, C57BL/6 mice were inoculated intranasally with 1e4 to 1e8 CFU of the multi-drug resistant Klebsiella pneumoniae carbapenam resistant (CRE) clinical isolate strain KP1131115 (O1). Anti-K. pneumoniae monoclonal antibody KPE33 at 0.2, 1, and 5 mg/kg and human IgG1 control antibody at 5 mg/kg were given one hour post bacterial challenge (therapeutic dosing). Mouse survival was monitored daily until up to day 8.
as §1, with “Additionally, in an” for “In an”, “monoclonal antibodies […] and […]” for “monoclonal antibody KPE33”, “at 0.2” for “at 0.2, 1,”, “and 1” for “and 5”
KPE33 or KPE33-V-2016 were administered at a dose of 6 mg/kg 1 hour post bacterial infection with a Klebsiella pneumoniae carbapenam resistant strain.

Molecule	Kd [1]	survival, lethal pneumonia Kp1131115 [2]	survival, lethal pneumonia Kp1131115 ([2]; listed as KPE33-H32+L2016(EQ1))
B1	4.46 nM	dose dependently enhanced survival	protect mice from lethal bacterial challenge
B2	5.01 nM	dose dependently enhanced survival	
B3	4.13 nM		
